Experimental data published in US7754689B2, “Finger-1 peptide analogs of the TGF-β superfamily” (Wyeth LLC, priority 2006, dated 2010).
Several values for one entry are separate records, joined by “and”; a condition that tells them apart may be missing. Equal entries are not always repeated.

Test: BMP solubility screen: A320 turbidity of BMP-12 solutions
Assay type: physicochemical
Details: 50 mM Tris pH 8, 0.5 mg/mL BMP-12
Protocol: BMP Solubility Screen—A Tecan liquid-handling robot was used to mix a master plate of reagents, 800 μL×1.25 concentration (for each solution; see Tables 2 and 3), each in 50 mM Tris buffer at pH 8. An eight-channel pipettor was used to transfer 80 μL of material from the master plate into a half-area UV microplate, from which A320 was read from each sample to define a blank. A repeat-pipettor was used to add 20 μL of 2.5 mg/mL BMP-12 in 0.1% TFA to make a 0.5 mg/mL solution, which was then agitated at 14000 rpm. The UV absorption (A320) was read and the blank absorption subtracted to determine solubility. The procedure was repeated with a wider range of 2-methyl-2,4-pentanediol (MPD) concentrations and a finer set of salt concentrations (Table 4).

B1: BMP-12: Bone Morphogenic Protein, member of the TGF-β superfamily; tested in solution and immobilized on Sepharose beads as affinity ligand (protein)
chain: TALAGTRTAQGSGGGAGRGHGRRGRSRCSRKPLHVDFKELGWDDWIIAPLDYEAYHCEGLCDFPLRSHLEPTNHAIIQTLLNSMAPDAAPASCCVPARLSPISILYIDAANNVVYKQYEDMVVEACGCR
A320 minus blank (turbidity) (NaCl 0 M, 1-propanol 0%): 1.724
A320 minus blank (turbidity) (NaCl 0 M, 1-propanol 2.5%): 1.848
A320 minus blank (turbidity) (NaCl 0 M, 1-propanol 5%): 2.134
A320 minus blank (turbidity) (NaCl 0 M, 1-propanol 10%): 2.000
A320 minus blank (turbidity) (NaCl 0 M, 1-propanol 15%): 3.172
A320 minus blank (turbidity) (NaCl 0 M, 1-propanol 25%): 1.419
A320 minus blank (turbidity) (NaCl 0 M, 2-methyl-2,4-pentanediol 2.5%): 1.936
A320 minus blank (turbidity) (NaCl 0 M, 2-methyl-2,4-pentanediol 5%): 2.122
A320 minus blank (turbidity) (NaCl 0 M, 2-methyl-2,4-pentanediol 10%): 2.148
A320 minus blank (turbidity) (NaCl 0 M, 2-methyl-2,4-pentanediol 15%): 2.035
A320 minus blank (turbidity) (NaCl 0 M, 2-methyl-2,4-pentanediol 20%): 2.136
A320 minus blank (turbidity) (NaCl 0 M, 2-methyl-2,4-pentanediol 25%): 2.631
A320 minus blank (turbidity) (NaCl 0.00 M, 2-methyl-2,4-pentanediol 30%): 3.443
A320 minus blank (turbidity) (NaCl 0.00 M, 2-methyl-2,4-pentanediol 35%): 3.006
A320 minus blank (turbidity) (NaCl 0.00 M, 2-methyl-2,4-pentanediol 40%): 3.519
A320 minus blank (turbidity) (NaCl 0.00 M, 2-methyl-2,4-pentanediol 45%): 3.308
A320 minus blank (turbidity) (NaCl 0.05 M, 2-methyl-2,4-pentanediol 25%): 1.994
A320 minus blank (turbidity) (NaCl 0.05 M, 2-methyl-2,4-pentanediol 30%): 0.979
A320 minus blank (turbidity) (NaCl 0.05 M, 2-methyl-2,4-pentanediol 35%): 0.376
A320 minus blank (turbidity) (NaCl 0.05 M, 2-methyl-2,4-pentanediol 40%): 0.330
A320 minus blank (turbidity) (NaCl 0.05 M, 2-methyl-2,4-pentanediol 45%): 0.318
A320 minus blank (turbidity) (NaCl 0.1 M, 1-propanol 0%): 1.745
A320 minus blank (turbidity) (NaCl 0.1 M, 1-propanol 2.5%): 2.135
A320 minus blank (turbidity) (NaCl 0.1 M, 1-propanol 5%): 2.212
A320 minus blank (turbidity) (NaCl 0.1 M, 1-propanol 10%): 1.945
A320 minus blank (turbidity) (NaCl 0.1 M, 1-propanol 15%): 3.199
A320 minus blank (turbidity) (NaCl 0.1 M, 1-propanol 25%): 0.104
A320 minus blank (turbidity) (NaCl 0.1 M, 2-methyl-2,4-pentanediol 2.5%): 1.900
A320 minus blank (turbidity) (NaCl 0.1 M, 2-methyl-2,4-pentanediol 5%): 2.338
A320 minus blank (turbidity) (NaCl 0.1 M, 2-methyl-2,4-pentanediol 10%): 2.341
A320 minus blank (turbidity) (NaCl 0.1 M, 2-methyl-2,4-pentanediol 15%): 2.287
A320 minus blank (turbidity) (NaCl 0.1 M, 2-methyl-2,4-pentanediol 20%): 2.573
A320 minus blank (turbidity) (NaCl 0.1 M, 2-methyl-2,4-pentanediol 25%): 0.715 and 0.626
A320 minus blank (turbidity) (NaCl 0.10 M, 2-methyl-2,4-pentanediol 30%): 0.206
A320 minus blank (turbidity) (NaCl 0.10 M, 2-methyl-2,4-pentanediol 35%): 0.150
A320 minus blank (turbidity) (NaCl 0.10 M, 2-methyl-2,4-pentanediol 40%): 0.083
A320 minus blank (turbidity) (NaCl 0.10 M, 2-methyl-2,4-pentanediol 45%): 0.087
A320 minus blank (turbidity) (NaCl 0.25 M, 1-propanol 0%): 1.804
A320 minus blank (turbidity) (NaCl 0.25 M, 1-propanol 2.5%): 2.397
A320 minus blank (turbidity) (NaCl 0.25 M, 1-propanol 5%): 2.300
A320 minus blank (turbidity) (NaCl 0.25 M, 1-propanol 10%): 2.105
A320 minus blank (turbidity) (NaCl 0.25 M, 1-propanol 15%): 1.392
A320 minus blank (turbidity) (NaCl 0.25 M, 1-propanol 25%): 0.022
A320 minus blank (turbidity) (NaCl 0.25 M, 2-methyl-2,4-pentanediol 2.5%): 2.061
A320 minus blank (turbidity) (NaCl 0.25 M, 2-methyl-2,4-pentanediol 5%): 2.399
A320 minus blank (turbidity) (NaCl 0.25 M, 2-methyl-2,4-pentanediol 10%): 2.434
A320 minus blank (turbidity) (NaCl 0.25 M, 2-methyl-2,4-pentanediol 15%): 2.433
A320 minus blank (turbidity) (NaCl 0.25 M, 2-methyl-2,4-pentanediol 20%): 1.006
A320 minus blank (turbidity) (NaCl 0.25 M, 2-methyl-2,4-pentanediol 30%): −0.015
A320 minus blank (turbidity) (NaCl 0.25 M, 2-methyl-2,4-pentanediol 35%): −0.065
A320 minus blank (turbidity) (NaCl 0.25 M, 2-methyl-2,4-pentanediol 40%): 0.015
A320 minus blank (turbidity) (NaCl 0.25 M, 2-methyl-2,4-pentanediol 45%): −0.012
A320 minus blank (turbidity) (NaCl 0.5 M, 1-propanol 0%): 1.953
A320 minus blank (turbidity) (NaCl 0.5 M, 1-propanol 2.5%): 2.170
A320 minus blank (turbidity) (NaCl 0.5 M, 1-propanol 5%): 1.629
A320 minus blank (turbidity) (NaCl 0.5 M, 1-propanol 10%): 1.313
A320 minus blank (turbidity) (NaCl 0.5 M, 1-propanol 15%): 0.305
A320 minus blank (turbidity) (NaCl 0.5 M, 1-propanol 25%): −0.001
A320 minus blank (turbidity) (NaCl 0.5 M, 2-methyl-2,4-pentanediol 2.5%): 2.045
A320 minus blank (turbidity) (NaCl 0.5 M, 2-methyl-2,4-pentanediol 5%): 2.414
A320 minus blank (turbidity) (NaCl 0.5 M, 2-methyl-2,4-pentanediol 10%): 2.258
A320 minus blank (turbidity) (NaCl 0.5 M, 2-methyl-2,4-pentanediol 15%): 1.420
A320 minus blank (turbidity) (NaCl 0.5 M, 2-methyl-2,4-pentanediol 20%): 0.165
A320 minus blank (turbidity) (NaCl 0.5 M, 2-methyl-2,4-pentanediol 25%): 0.020 and 0.038
A320 minus blank (turbidity) (NaCl 0.50 M, 2-methyl-2,4-pentanediol 30%): −0.091
A320 minus blank (turbidity) (NaCl 0.50 M, 2-methyl-2,4-pentanediol 35%): 0.026
A320 minus blank (turbidity) (NaCl 0.50 M, 2-methyl-2,4-pentanediol 40%): 0.024
A320 minus blank (turbidity) (NaCl 0.50 M, 2-methyl-2,4-pentanediol 45%): −0.008
A320 minus blank (turbidity) (NaCl 0.75 M, 1-propanol 0%): 1.911
A320 minus blank (turbidity) (NaCl 0.75 M, 1-propanol 2.5%): 2.023
A320 minus blank (turbidity) (NaCl 0.75 M, 1-propanol 5%): 1.541
A320 minus blank (turbidity) (NaCl 0.75 M, 1-propanol 10%): 1.032
A320 minus blank (turbidity) (NaCl 0.75 M, 1-propanol 15%): 0.094
A320 minus blank (turbidity) (NaCl 0.75 M, 1-propanol 25%): −0.003
A320 minus blank (turbidity) (NaCl 0.75 M, 2-methyl-2,4-pentanediol 2.5%): 1.985
A320 minus blank (turbidity) (NaCl 0.75 M, 2-methyl-2,4-pentanediol 5%): 2.076
A320 minus blank (turbidity) (NaCl 0.75 M, 2-methyl-2,4-pentanediol 10%): 2.211
A320 minus blank (turbidity) (NaCl 0.75 M, 2-methyl-2,4-pentanediol 15%): 0.818
A320 minus blank (turbidity) (NaCl 0.75 M, 2-methyl-2,4-pentanediol 20%): 0.099
A320 minus blank (turbidity) (NaCl 0.75 M, 2-methyl-2,4-pentanediol 25%): 0.001
A320 minus blank (turbidity) (NaCl 1 M, 1-propanol 0%): 1.988
A320 minus blank (turbidity) (NaCl 1 M, 1-propanol 2.5%): 1.601
A320 minus blank (turbidity) (NaCl 1 M, 1-propanol 5%): 1.817
A320 minus blank (turbidity) (NaCl 1 M, 1-propanol 10%): 1.000
A320 minus blank (turbidity) (NaCl 1 M, 1-propanol 15%): 0.040
A320 minus blank (turbidity) (NaCl 1 M, 1-propanol 25%): −0.010
A320 minus blank (turbidity) (NaCl 1 M, 2-methyl-2,4-pentanediol 2.5%): 2.133
A320 minus blank (turbidity) (NaCl 1 M, 2-methyl-2,4-pentanediol 5%): 1.903
A320 minus blank (turbidity) (NaCl 1 M, 2-methyl-2,4-pentanediol 10%): 2.110
A320 minus blank (turbidity) (NaCl 1 M, 2-methyl-2,4-pentanediol 15%): 0.400
A320 minus blank (turbidity) (NaCl 1 M, 2-methyl-2,4-pentanediol 20%): 0.089
A320 minus blank (turbidity) (NaCl 1 M, 2-methyl-2,4-pentanediol 25%): −0.015
A320 minus blank (turbidity) (NaCl 1.25 M, 1-propanol 0%): 1.702
A320 minus blank (turbidity) (NaCl 1.25 M, 1-propanol 2.5%): 1.376
A320 minus blank (turbidity) (NaCl 1.25 M, 1-propanol 5%): 1.643
A320 minus blank (turbidity) (NaCl 1.25 M, 1-propanol 10%): 1.018
A320 minus blank (turbidity) (NaCl 1.25 M, 1-propanol 15%): 0.033
A320 minus blank (turbidity) (NaCl 1.25 M, 1-propanol 25%): 0.022
A320 minus blank (turbidity) (NaCl 1.25 M, 2-methyl-2,4-pentanediol 2.5%): 1.819
A320 minus blank (turbidity) (NaCl 1.25 M, 2-methyl-2,4-pentanediol 5%): 1.643
A320 minus blank (turbidity) (NaCl 1.25 M, 2-methyl-2,4-pentanediol 10%): 1.688
A320 minus blank (turbidity) (NaCl 1.25 M, 2-methyl-2,4-pentanediol 15%): 0.257
A320 minus blank (turbidity) (NaCl 1.25 M, 2-methyl-2,4-pentanediol 20%): 0.040
A320 minus blank (turbidity) (NaCl 1.25 M, 2-methyl-2,4-pentanediol 25%): −0.011
A320 minus blank (turbidity) (NaCl 1.5 M, 1-propanol 0%): 1.981
A320 minus blank (turbidity) (NaCl 1.5 M, 1-propanol 2.5%): 1.358
A320 minus blank (turbidity) (NaCl 1.5 M, 1-propanol 5%): 1.598
A320 minus blank (turbidity) (NaCl 1.5 M, 1-propanol 10%): 0.973
A320 minus blank (turbidity) (NaCl 1.5 M, 1-propanol 15%): 0.036
A320 minus blank (turbidity) (NaCl 1.5 M, 1-propanol 25%): 0.478
A320 minus blank (turbidity) (NaCl 1.5 M, 2-methyl-2,4-pentanediol 2.5%): 1.767
A320 minus blank (turbidity) (NaCl 1.5 M, 2-methyl-2,4-pentanediol 5%): 1.521
A320 minus blank (turbidity) (NaCl 1.5 M, 2-methyl-2,4-pentanediol 10%): 1.798
A320 minus blank (turbidity) (NaCl 1.5 M, 2-methyl-2,4-pentanediol 15%): 0.227
A320 minus blank (turbidity) (NaCl 1.5 M, 2-methyl-2,4-pentanediol 20%): 0.045
A320 minus blank (turbidity) (NaCl 1.5 M, 2-methyl-2,4-pentanediol 25%): 0.003
